Reference: patent US20240279278A1, “NMU RECEPTOR 2 AGONISTS” (Boehringer Ingelheim International GmbH, priority 2023, published 2024)
Blank lines part the entries; values can stand above or below the binder they belong to.

Target: T1, human neuromedin U receptor 1 (human, UniProt Q9HB89 24-426)
T1 sequence (looked up): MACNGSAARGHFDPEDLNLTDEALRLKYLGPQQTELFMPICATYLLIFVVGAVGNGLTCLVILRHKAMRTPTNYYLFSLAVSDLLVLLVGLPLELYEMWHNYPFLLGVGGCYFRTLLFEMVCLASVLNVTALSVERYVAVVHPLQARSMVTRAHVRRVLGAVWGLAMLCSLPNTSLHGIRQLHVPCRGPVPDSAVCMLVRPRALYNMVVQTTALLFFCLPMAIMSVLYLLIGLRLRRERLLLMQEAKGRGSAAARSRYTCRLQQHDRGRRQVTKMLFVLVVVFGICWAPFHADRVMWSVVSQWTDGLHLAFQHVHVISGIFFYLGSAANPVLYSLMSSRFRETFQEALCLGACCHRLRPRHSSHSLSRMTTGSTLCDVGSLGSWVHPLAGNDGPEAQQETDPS
Test: cell-based or functional assay

- EC50 (hNMUR1) buffer: > 1000 nM
B2: C20DA-gGlu4-Sar15-AEPipAc-Tyr-Phe-NMeLeu-Nle-Lys-NMeAla-Arg-Gly-NH2 (peptide)
peptide: EEEEXXXXXXXXXXXXXXXXYFLXKARG
HELM: PEPTIDE1{[O=C(O)CCCCCCCCCCCCCCCCCCC(=O)[*:2]].[gGlu].[gGlu].[gGlu].[gGlu].[Sar].[Sar].[Sar].[Sar].[Sar].[Sar].[Sar].[Sar].[Sar].[Sar].[Sar].[Sar].[Sar].[Sar].[Sar].[O=C(CN1CCN(CCN[*:1])CC1)[*:2]].Y.F.[meL].[Nle].K.[meA].R.G.[am]}$$$$V2.0
SMILES: CCCC[C@H](NC(=O)[C@H](CC(C)C)N(C)C(=O)[C@H](Cc1ccccc1)NC(=O)[C@H](Cc1ccc(O)cc1)NC(=O)CN1CCN(CCNC(=O)CN(C)C(=O)CN(C)C(=O)CN(C)C(=O)CN(C)C(=O)CN(C)C(=O)CN(C)C(=O)CN(C)C(=O)CN(C)C(=O)CN(C)C(=O)CN(C)C(=O)CN(C)C(=O)CN(C)C(=O)CN(C)C(=O)CN(C)C(=O)CN(C)C(=O)CC[C@H](NC(=O)CC[C@H](NC(=O)CC[C@H](NC(=O)CC[C@H](NC(=O)CCCCCCCCCCCCCCCCCCC(=O)O)C(=O)O)C(=O)O)C(=O)O)C(=O)O)CC1)C(=O)N[C@@H](CCCCN)C(=O)N(C)[C@@H](C)C(=O)N[C@@H](CCCNC(=N)N)C(=O)NCC(N)=O

- EC50 (hNMUR1) buffer: 440 nM
B4: C20DA-gGlu4-Sar15-AEPipAc-Tyr-Phe-NMeLeu-Nle-Orn-Pro-Arg-Gly-NH2 (peptide)
peptide: EEEEXXXXXXXXXXXXXXXXYFLXXPRG
HELM: PEPTIDE1{[O=C(O)CCCCCCCCCCCCCCCCCCC(=O)[*:2]].[gGlu].[gGlu].[gGlu].[gGlu].[Sar].[Sar].[Sar].[Sar].[Sar].[Sar].[Sar].[Sar].[Sar].[Sar].[Sar].[Sar].[Sar].[Sar].[Sar].[O=C(CN1CCN(CCN[*:1])CC1)[*:2]].Y.F.[meL].[Nle].[Orn].P.R.G.[am]}$$$$V2.0
SMILES: CCCC[C@H](NC(=O)[C@H](CC(C)C)N(C)C(=O)[C@H](Cc1ccccc1)NC(=O)[C@H](Cc1ccc(O)cc1)NC(=O)CN1CCN(CCNC(=O)CN(C)C(=O)CN(C)C(=O)CN(C)C(=O)CN(C)C(=O)CN(C)C(=O)CN(C)C(=O)CN(C)C(=O)CN(C)C(=O)CN(C)C(=O)CN(C)C(=O)CN(C)C(=O)CN(C)C(=O)CN(C)C(=O)CN(C)C(=O)CN(C)C(=O)CC[C@H](NC(=O)CC[C@H](NC(=O)CC[C@H](NC(=O)CC[C@H](NC(=O)CCCCCCCCCCCCCCCCCCC(=O)O)C(=O)O)C(=O)O)C(=O)O)C(=O)O)CC1)C(=O)N[C@@H](CCCN)C(=O)N1CCC[C@H]1C(=O)N[C@@H](CCCNC(=N)N)C(=O)NCC(N)=O

- EC50 (hNMUR1) buffer: 610 nM
B6: C20DA-gGlu4-Sar15-AEPipAc-Tyr-Phe-NMeLeu-Nle-Lys-Pro-Arg-Gly-NH2 (peptide)
peptide: EEEEXXXXXXXXXXXXXXXXYFLXKPRG
HELM: PEPTIDE1{[O=C(O)CCCCCCCCCCCCCCCCCCC(=O)[*:2]].[gGlu].[gGlu].[gGlu].[gGlu].[Sar].[Sar].[Sar].[Sar].[Sar].[Sar].[Sar].[Sar].[Sar].[Sar].[Sar].[Sar].[Sar].[Sar].[Sar].[O=C(CN1CCN(CCN[*:1])CC1)[*:2]].Y.F.[meL].[Nle].K.P.R.G.[am]}$$$$V2.0
SMILES: CCCC[C@H](NC(=O)[C@H](CC(C)C)N(C)C(=O)[C@H](Cc1ccccc1)NC(=O)[C@H](Cc1ccc(O)cc1)NC(=O)CN1CCN(CCNC(=O)CN(C)C(=O)CN(C)C(=O)CN(C)C(=O)CN(C)C(=O)CN(C)C(=O)CN(C)C(=O)CN(C)C(=O)CN(C)C(=O)CN(C)C(=O)CN(C)C(=O)CN(C)C(=O)CN(C)C(=O)CN(C)C(=O)CN(C)C(=O)CN(C)C(=O)CC[C@H](NC(=O)CC[C@H](NC(=O)CC[C@H](NC(=O)CC[C@H](NC(=O)CCCCCCCCCCCCCCCCCCC(=O)O)C(=O)O)C(=O)O)C(=O)O)C(=O)O)CC1)C(=O)N[C@@H](CCCCN)C(=O)N1CCC[C@H]1C(=O)N[C@@H](CCCNC(=N)N)C(=O)NCC(N)=O

Continued, binder first:

B1: C20DA-gGlu3-Sar15-AEPipAc-Tyr-Phe-NMeLeu-Nle-Orn-bAla-Arg-Gly-NH2 (peptide)
peptide: EEEXXXXXXXXXXXXXXXXYFLXXXRG
HELM: PEPTIDE1{[O=C(O)CCCCCCCCCCCCCCCCCCC(=O)[*:2]].[gGlu].[gGlu].[gGlu].[Sar].[Sar].[Sar].[Sar].[Sar].[Sar].[Sar].[Sar].[Sar].[Sar].[Sar].[Sar].[Sar].[Sar].[Sar].[O=C(CN1CCN(CCN[*:1])CC1)[*:2]].Y.F.[meL].[Nle].[Orn].[bAla].R.G.[am]}$$$$V2.0
SMILES: CCCC[C@H](NC(=O)[C@H](CC(C)C)N(C)C(=O)[C@H](Cc1ccccc1)NC(=O)[C@H](Cc1ccc(O)cc1)NC(=O)CN1CCN(CCNC(=O)CN(C)C(=O)CN(C)C(=O)CN(C)C(=O)CN(C)C(=O)CN(C)C(=O)CN(C)C(=O)CN(C)C(=O)CN(C)C(=O)CN(C)C(=O)CN(C)C(=O)CN(C)C(=O)CN(C)C(=O)CN(C)C(=O)CN(C)C(=O)CN(C)C(=O)CC[C@H](NC(=O)CC[C@H](NC(=O)CC[C@H](NC(=O)CCCCCCCCCCCCCCCCCCC(=O)O)C(=O)O)C(=O)O)C(=O)O)CC1)C(=O)N[C@@H](CCCN)C(=O)NCCC(=O)N[C@@H](CCCNC(=N)N)C(=O)NCC(N)=O
- EC50 (hNMUR1) buffer: > 1000 nM

B3: C20DA-gGlu3-Sar15-AEPipAc-Tyr-Phe-NMeLeu-Nle-Orn-Gly-Arg-Gly-NH2 (peptide)
peptide: EEEXXXXXXXXXXXXXXXXYFLXXGRG
HELM: PEPTIDE1{[O=C(O)CCCCCCCCCCCCCCCCCCC(=O)[*:2]].[gGlu].[gGlu].[gGlu].[Sar].[Sar].[Sar].[Sar].[Sar].[Sar].[Sar].[Sar].[Sar].[Sar].[Sar].[Sar].[Sar].[Sar].[Sar].[O=C(CN1CCN(CCN[*:1])CC1)[*:2]].Y.F.[meL].[Nle].[Orn].G.R.G.[am]}$$$$V2.0
SMILES: CCCC[C@H](NC(=O)[C@H](CC(C)C)N(C)C(=O)[C@H](Cc1ccccc1)NC(=O)[C@H](Cc1ccc(O)cc1)NC(=O)CN1CCN(CCNC(=O)CN(C)C(=O)CN(C)C(=O)CN(C)C(=O)CN(C)C(=O)CN(C)C(=O)CN(C)C(=O)CN(C)C(=O)CN(C)C(=O)CN(C)C(=O)CN(C)C(=O)CN(C)C(=O)CN(C)C(=O)CN(C)C(=O)CN(C)C(=O)CN(C)C(=O)CC[C@H](NC(=O)CC[C@H](NC(=O)CC[C@H](NC(=O)CCCCCCCCCCCCCCCCCCC(=O)O)C(=O)O)C(=O)O)C(=O)O)CC1)C(=O)N[C@@H](CCCN)C(=O)NCC(=O)N[C@@H](CCCNC(=N)N)C(=O)NCC(N)=O
- EC50 (hNMUR1) buffer: > 1000 nM

B5: C20DA-gGlu4-Sar12-AEPipAc-Tyr-Phe-NMeLeu-Nle-Lys-NMeAla-Arg-Gly-NH2 (peptide)
peptide: EEEEXXXXXXXXXXXXXYFLXKARG
HELM: PEPTIDE1{[O=C(O)CCCCCCCCCCCCCCCCCCC(=O)[*:2]].[gGlu].[gGlu].[gGlu].[gGlu].[Sar].[Sar].[Sar].[Sar].[Sar].[Sar].[Sar].[Sar].[Sar].[Sar].[Sar].[Sar].[O=C(CN1CCN(CCN[*:1])CC1)[*:2]].Y.F.[meL].[Nle].K.[meA].R.G.[am]}$$$$V2.0
SMILES: CCCC[C@H](NC(=O)[C@H](CC(C)C)N(C)C(=O)[C@H](Cc1ccccc1)NC(=O)[C@H](Cc1ccc(O)cc1)NC(=O)CN1CCN(CCNC(=O)CN(C)C(=O)CN(C)C(=O)CN(C)C(=O)CN(C)C(=O)CN(C)C(=O)CN(C)C(=O)CN(C)C(=O)CN(C)C(=O)CN(C)C(=O)CN(C)C(=O)CN(C)C(=O)CN(C)C(=O)CC[C@H](NC(=O)CC[C@H](NC(=O)CC[C@H](NC(=O)CC[C@H](NC(=O)CCCCCCCCCCCCCCCCCCC(=O)O)C(=O)O)C(=O)O)C(=O)O)C(=O)O)CC1)C(=O)N[C@@H](CCCCN)C(=O)N(C)[C@@H](C)C(=O)N[C@@H](CCCNC(=N)N)C(=O)NCC(N)=O
- EC50 (hNMUR1) buffer: 1400 nM
